Test results: the supplement of paper PMC9170038

Tested on: MS2 coat protein
Test: apparent KD of MS2 coat protein; designed switch direction (-1 OFF switch, 1 ON switch): -1; higher = weaker reporter binding
Method in brief: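 RNA switches sharing common flanks were transcribed by stalled E. coli RNA polymerase on Illumina chips. A doubling series of SNAP-549-labelled MS2 coat protein, from 0.7 or 1.5 nM to 3 µM, was applied in Tris-HCl pH 7.5 buffer with KCl, MgCl2, BSA, DTT, tRNA and Tween-20. Each step lasted 0.8–1.5 h at the bottom of the series and 10–20 min at the top. Normalised cluster fluorescence was curve-fitted, giving apparent KD as the per-design median over clusters.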

[1] = Eterna round: R95, input ligand: FMN 200 uM
[2] = Eterna round: R95, input ligand: microRNA oligo, concentration not stated
[3] = Eterna round: R95, input ligand: none

## GGUCGUAUGAGUAGUCCUCAUUGAAGAGAUUGGUAAGAUACAUGAGGAUCACCCAUGUUUGAACAAGCUUUUGCUCU [JR_Sv3TOV2_Sub008] (puzzle: Sensor v3, turn-off variant 2)
[1]
  apparent KD of MS2 coat protein: 96 nM
[2]
  apparent KD of MS2 coat protein: 41.9 nM
[3]
  apparent KD of MS2 coat protein: 120 nM

## GGUGCGUAUGUGAGGAUAUGCUGGUCCUUGGAUCGGCAGAAGGUACAUGAGGAUCACCCAUGUGGUGUCGUUCC [salish99_Bmod_ex4_102] (puzzle: Brourd's mod of Exclusion 4)
[2]
  apparent KD of MS2 coat protein: 87 nM

## GGUGCGUUUGUGAGGAUAUGCUGGUCCUUGGAUCAGCAGAAGGCACAUGAGGAUCACCCAUGUGGUGUCCCUCC [salish99_Bmod_Ex4_040] (puzzle: Brourd's mod of Exclusion 4)
[2]
  apparent KD of MS2 coat protein: 154 nM

## GGUGCGUUUGUGAGGAUAUGCUGGUCCUUGGAUCAGCAGAAGGCACAUGAGGAUCACCCAUGUGGUGUCGGUCC [salish99_Bmod_Ex4_038] (puzzle: Brourd's mod of Exclusion 4)
[2]
  apparent KD of MS2 coat protein: 252 nM

## GGUGCGUUUGUGAGGAUAUGCUGGUCCUUGGGUCAGCAGAAGGCACAUGAGGAUCACCCAUGUGGUGUCGUACC [salish99_Bmod_Ex4_032] (puzzle: Brourd's mod of Exclusion 4)
[2]
  apparent KD of MS2 coat protein: 178 nM

## GGUGCUGGCGCGUCGGUGUUGGUGCAAUAAGCUUGUGAGACAUGAGGAUCACCCAUGUCCUCGUGGGCUCGUCUUGU [salish99_TOv2_r2_091] (puzzle: Sensor v3, turn-off variant 2)
[1]
  apparent KD of MS2 coat protein: 91.2 nM
[2]
  apparent KD of MS2 coat protein: 79.3 nM
[3]
  apparent KD of MS2 coat protein: 93.7 nM

## GGUGGACAUGAGGAUCACCCAUGUGAGGAUAUCGGCUAUCUACUCGCUGACGGCUGCUCGAGAAGGCGCAUUGU [Exclusion 1 V90] (puzzle: Exclusion 1)
[2]
  apparent KD of MS2 coat protein: 44.8 nM

## GGUGGACAUGAGGAUCACCCAUGUGAGGAUAUCGGCUGGUACGUGGUGGCUGGCAUCUCGAGAAGGCACAUAGU [Exclusion 1 V66] (puzzle: Exclusion 1)
[2]
  apparent KD of MS2 coat protein: 83.6 nM

## GGUGGACAUGAGGAUCACCCAUGUGAGGAUAUCGGCUGGUACGUGUUGGCUGGCAUCUCGAGAAGGCACAUCGU [Exclusion 1 V64] (Eterna round: R96, puzzle: Exclusion 1)
Input ligand: FMN 200 uM
  apparent KD of MS2 coat protein: 181 nM
Input ligand: microRNA oligo, concentration not stated
  apparent KD of MS2 coat protein: 46 nM
Input ligand: none
  apparent KD of MS2 coat protein: 49 nM

## GGUGGACAUGAGGAUCACCCAUGUGAGGAUAUCGGCUGGUACGUGUUGGCUGGCAUCUCGAGAAGGCACAUCGU [Exclusion 1 V64] (puzzle: Exclusion 1)
[2]
  apparent KD of MS2 coat protein: 44.8 nM

## GGUGUUGAAGGAUAUACAUGAGGAUCACCCAUGUACCGCUCGGACAAGAUAUCAUUCAGUAGAAGGUCGGACCG [Eternabot (L2) Solution 11] (Eterna round: R97, puzzle: Exclusion 3)
Input ligand: FMN 200 uM
  apparent KD of MS2 coat protein: 66.5 nM
Input ligand: none
  apparent KD of MS2 coat protein: 150 nM

## GGUUGACAUGAGGAUCACCCAUGUGAGGAUAUGCGAGAGAAAAAAGUGAGGAAGAAAUGCAGAAGGCGCUGUCG [salish99-ex1_r3_009] (puzzle: Exclusion 1)
[1]
  apparent KD of MS2 coat protein: 127 nM
[2]
  apparent KD of MS2 coat protein: 81.5 nM
[3]
  apparent KD of MS2 coat protein: 433 nM

## GGUUGGCGAGGAUAUACAUGAGGAUCACCCAUGUGAGAGAAAAAAGUGAGGAAGAACAGUAGAAGGCGCUGACG [salish99_ex3_r3_036] (puzzle: Exclusion 3)
[1]
  apparent KD of MS2 coat protein: 162 nM
[2]
  apparent KD of MS2 coat protein: 74.2 nM
[3]
  apparent KD of MS2 coat protein: 106 nM

## GGUUGGCGAGGAUAUACAUGAGGAUCACCCAUGUGAGAGAAAAAAGUGAGGCAGAAAAGUAGAAGGCGCUGACG [salish99_ex3_r3_031] (puzzle: Exclusion 3)
[1]
  apparent KD of MS2 coat protein: 137 nM
[2]
  apparent KD of MS2 coat protein: 29.8 nM
[3]
  apparent KD of MS2 coat protein: 96.8 nM

## GGUUGGCGAGGAUAUACAUGAGGAUCACCCAUGUGAGAGAAACAAGUGAGGAAGAAAAGUAGAAGGCGCUGACG [salish99_ex3_r3_023] (puzzle: Exclusion 3)
[1]
  apparent KD of MS2 coat protein: 112 nM
[2]
  apparent KD of MS2 coat protein: 88.1 nM
[3]
  apparent KD of MS2 coat protein: 37.1 nM

## GGUUGGCGAGGAUAUACAUGAGGAUCACCCAUGUGAGAGAAUAAAGUGAGAAAGAAAAGUAGAAGGCGCUGACG [Mat - Exclusion 3 - Mod of Salish D49] (puzzle: Exclusion 3)
[1]
  apparent KD of MS2 coat protein: 728 nM
[2]
  apparent KD of MS2 coat protein: 56.9 nM
[3]
  apparent KD of MS2 coat protein: 43.3 nM

## GGUUGGCGAGGAUAUACAUGAGGAUCACCCAUGUGAGAGAAUAAAGUGAGGAAGAAAAGUAGAAGGCGCUGACA [Mat - Exclusion 3 - Mod of Salish D8] (puzzle: Exclusion 3)
[1]
  apparent KD of MS2 coat protein: 154 nM
[2]
  apparent KD of MS2 coat protein: 42.1 nM
[3]
  apparent KD of MS2 coat protein: 40.7 nM

## GGUUGUUGUUUCCGUUCUUACAUGAGGAUCACCCAUGUUUCUUGUCGUGCUCGCGUUGCUCGUCUGGCUGCCUGUUG [salish99_TOv1_r3_070] (puzzle: Sensor v3, turn-off variant 1)
[1]
  apparent KD of MS2 coat protein: 41.2 nM
[2]
  apparent KD of MS2 coat protein: 37.4 nM
[3]
  apparent KD of MS2 coat protein: 54.4 nM

## GGUUGUUGUUUCCGUUCUUACAUGAGGAUCACCCAUGUUUCUUGUCGUGCUCGCGUUGCUCGUCUGUCUGUCUGUUG [salish99_TOv1_r3_072] (puzzle: Sensor v3, turn-off variant 1)
[1]
  apparent KD of MS2 coat protein: 55.7 nM
[2]
  apparent KD of MS2 coat protein: 36.2 nM
[3]
  apparent KD of MS2 coat protein: 63 nM
